Measurements: article PMC11436757, “BRCA2 stabilises RAD51 and DMC1 nucleoprotein filaments through a conserved interaction mode” (Nature Communications, 2024)
Changes are numbered by the printed parent chain. In names and notes the source's numbering stands. Entries after “also recorded” stand apart in the source; their conditions may differ. Read-outs that look alike come from different tables or passages of the source. No end group written: not given here.

B1: BRCA2 Ex14-Tr peptide (amino acids 2401-2414) (peptide)
peptide: RPTKVFVPPFKTKS
notes: human BRCA2 Ex14 truncated, amino acids 2401-2414; also called truncated Ex14; source: synthetic peptide (Severn Biotech)
B2: BRCA2 Ex14 (amino acids 2387-2420), purified (peptide, UniProt P51587 2387-2420, looked up)
chain: ATRNEKMRHLITTGRPTKVFVPPFKTKSHFHRVE
notes: human BRCA2 exon 14 PhePP region, amino acids 2387-2420; source: E. coli BL21 (DE3), purified (Ni-NTA, HiTrap Q, TEV cleavage, HiTrap SP, SEC)
B3: DMC1 ΔN loop mutant, purified (domain or fragment, human, UniProt Q14565 83-340, looked up)
chain: PGFLTAFEYSEKRKMVFHITTGSQEFDKLLGGGIESMAITEAFGEFRTGKTQLSHTLCVTAQLPIDRGGGEGKIIFIDTENTFRPDRLRDIADRFGLSGSDVLDNVLYARAYTSEHQMELLDYVAAKFHEEAGIFKLLIIDSIMALFRVDFSGRGELAERQQKLAQMLSRLQKISEEYNVAVFVTNQMTADPGATMTFQADPKKPIGGHILAHASTTRISLRKGRGELRIAKIYDSPEMPENEATFAITAGGIGDAKE
modifications: amine reactive fluorescent dye (Monolith Protein Labelling Kit BLUE-NHS) in the MST only
notes: The purification of the mutant is not described; probably as for DMC1 ΔN (His6 tag cleaved)
B4: 100-nt poly(dT) (ssDNA)
DNA: TTTTTTTTTTTTTTTTTTTTTTTTTTTTTTTTTTTTTTTTTTTTTTTTTTTTTTTTTTTTTTTTTTTTTTTTTTTTTTTTTTTTTTTTTTTTTTTTTTTT
B5: DMC1 ΔN (amino-acids 83-340), purified (domain or fragment, human, UniProt Q14565 83-340, looked up)
chain: PGFLTAFEYSEKRKMVFHITTGSQEFDKLLGGGIESMAITEAFGEFRTGKTQLSHTLCVTAQLPGAGGYPGGKIIFIDTENTFRPDRLRDIADRFNVDHDAVLDNVLYARAYTSEHQMELLDYVAAKFHEEAGIFKLLIIDSIMALFRVDFSGRGELAERQQKLAQMLSRLQKISEEYNVAVFVTNQMTADPGATMTFQADPKKPIGGHILAHASTTRISLRKGRGELRIAKIYDSPEMPENEATFAITAGGIGDAKE
modifications: amine reactive fluorescent dye (Monolith Protein Labelling Kit BLUE-NHS) in the MST only
notes: human DMC1 with its N-terminal domain deleted, amino acids 83-340; Octameric ring in the crystal and in solution; also called DMC1 core; structural core of human DMC1; source: E. coli BL21 (DE3), purified (Ni-NTA, HiTrap Q, TEV cleavage, HiTrap Q, SEC)
B6: His-DMC1 ΔN V179E mutant (domain or fragment, human, UniProt Q14565 83-340, looked up)
chain: B5 chain with V97E
notes: human DMC1 ΔN (83-340) with V179E, cloned into pHAT4; His tag named on the protein in the pull-down; also called His6-DMC1 mutant; source: E. coli, in lysate (pull-down); purified for SEC-MALS (purification not described)

Key:
[1] = molecular target: B5; assay: MST; DMC1 ΔN or loop mutant labelled with BLUE-NHS dye, constant at 150 nM; peptide titrated in 1:1 dilutions starting from 750 µM; 10 mM HEPES pH 8.0, 150 mM NaCl, 0.05 % Tween-20; room temperature (~22 °C); affinities derived from initial fluorescence
[2] = test system: DMC1 V179E-ssDNA filaments; assay: EMSA, super-shift of filaments formed using DMC1 V179E; assay type: biochemical, human
Procedure: (§1) To form nucleoprotein filaments, DMC1 and RAD51 was incubated with fluorescent 100-base ssDNA (5’-FAM- […]-3’) at the concentrations indicated in the figures for 30 minutes at 4 °C in reaction buffer. For DMC1, reaction buffer is 25 mM TEA (triethanolamine) pH 7.5, 1 mM ATP, 2 mM MgCl2, 0.1 mg/ml BSA, 2 mM DTT, 200 mM KCl. For RAD51, reaction buffer is 50 mM TEA (triethanolamine), 2 mM ATP, 0.5 mM MgCl2, 2 mM DTT. For assays requiring incomplete nucleoprotein filament assembly, the reaction buffer consisted of 50 mM TAE (tris, acetate, EDTA) pH 7.5, 2 mM ATP, 2 mM MgCl2, 2 mM DTT. In nucleoprotein formation stimulation assays or supershift experiments, BRCA2Ex14 or BRCA2Ex14-AAA were added for a further 30 min at 4 °C. […] Glycerol was added at a final concentration of 3%, and samples were analysed by electrophoresis on a 1% (w/v) (for DMC1) or 0.66% (w/v) (for RAD51) agarose gel in 0.5x TAE pH 8.0 at 20–40 V for ~4 h at 4 °C. DNA was detected by FAM using a Typhoon^TM FLA 9500 (GE Healthcare), with 473 nm laser at excitation wavelength 490 nm and emission wavelength 520 nm, using the LPB filter and a PMT voltage of 500 V. To analyse RAD51 nucleoprotein filaments assembled upon 100-base poly(dT) ssDNA, gels were stained post-run using SYBR^TM Gold Nucleic Acid Gel Stain (Invitrogen) and detected using a Typhoon^TM FLA 9500 (GE Healthcare).

DMC1 ΔN [3] = molecular target: T1, DMC1 ΔN (Homo sapiens, UniProt Q14565); assay: Amylose pull-down of DMC1 ΔN with MBP-BRCA2 fusions; assay type: binding; conditions: recombinant co-expression with MBP-BRCA2 fusion
T1 construct: DMC1 ΔN (83-340) were cloned into pHAT4; His6 (TEV-cleavable) (N, cleaved yes); made in house; host or cells: E. coli BL21 (DE3)
T1 sequence (Q14565 83-340): B5 chain
From the text: For affinity pulldown experiments, MBP-fusions of BRCA2 fragments (Ex14, amino-acids 2387-2420, Ex14-Tr, amino acids 2401-2414, Ex27, amino acids 3270-3315, BRC4, amino acids 1519-1551) were cloned into pMAT11 vectors[54] and co-expressed with DMC1 ΔN, DMC1 ΔN loop mutant (in which DMC1 amino acids 147-GAGGYPG-153 and 178-NVDHDA-183 were replaced by the cognate sequences of RAD51 148-IDRGGGE-154 and 179-GLSGSD-184), RAD51 ΔN, RAD51 ΔN loop mutant (the reverse switch of DMC1 ΔN loop mutant), and RAD51. MBP-fusions and complexes were purified through amylose affinity chromatography.

DMC1-ssDNA filaments [4] = assay: EMSA, super-shift of DMC1-ssDNA filaments (TEA pH 7.5 + KCl); assay type: biochemical, human; conditions: 100-nt random ssDNA, 4 °C
From the text: (§2) What is the function of the BRCA2 Ex14-DMC1 interaction? We used electrophoretic mobility shift assays (EMSAs) to determine the impact of BRCA2-binding on DMC1 nucleoprotein filaments. We used two different conditions for nucleoprotein filament assembly. Firstly, a TAE (tris, acetate, EDTA; pH 7.5) buffer that was previously used for RAD51-ssDNA filaments, in which DMC1-ssDNA filaments were partially formed at the canonical ratio of three nucleotides to one protomer (Fig. 3a). Secondly, a TEA (triethanolamine; pH 7.5) + KCl buffer based on previous DMC1 studies[36]–[38], in which DMC1-ssDNA filament formation was more complete at the canonical ratio (Fig. 3b). […] This was noticeable using Ex14 in equimolar amounts (11 μM), and became substantial at a 5-fold stoichiometric excess (55 μM) (Fig. 3b). As the KD of the DMC1-Ex14 interaction is approximately 30 μM (Fig. 2a), the requirement for a stoichiometric excess is likely due to binding being favoured at Ex14 concentrations above the KD.
as §1

DMC1 ΔN [5] = molecular target: T1, DMC1 ΔN; assay: Microscale thermophoresis (MST), BRCA2 peptides and DMC1 ΔN; assay type: binding; conditions: labelled DMC1 ΔN 150 nM
Procedure: DMC1 ΔN and DMC1 ΔN loop mutant were labelled in 10 mM HEPES pH 8.0, 150 mM NaCl with an amine reactive fluorescent dye (MonolithTM Protein Labelling Kit BLUE-NHS, Nanotemper GmbH). A serial dilution of titrant (peptide) was prepared in 10 mM HEPES pH 8.0, 150 mM NaCl, 0.05 % Tween-20. The concentration of labelled DMC1 ΔN or DMC1 ΔN loop mutant were constant at 150 nM and the concentration of the interacting peptide was titrated in 1:1 dilutions starting from 750 µM. An equal volume (10 µl) of the serial dilution and of the diluted labelled DMC1 were mixed and loaded in glass capillaries (MonolithTM NT.115 MST Premium Coated Capillaries, Nanotemper GmbH). The initial fluorescence and the thermophoretic mobility were measured on a Monolith NT.115 system (NanoTemper Technologies). The excitation power was 45 % and MST power was 60 % at room temperature (~22 °C). Laser on and off times were set at 5 and 30 seconds, respectively. Data analysis was performed with NT Affinity Analysis software.
As a change in initial fluorescence was detected, SDS denaturation (SD) tests were performed according to the manufacturer’s instructions to determine whether these changes were ligand-induced and whether the data could therefore be used to derive affinity measurements. Briefly, 7 µl of the samples containing the three highest and three lowest concentrations of peptide were mixed with 7 µl of denaturation buffer (4 % SDS, 40 mM DTT). After incubating each for 5 minutes at 95 °C to denature the proteins and subject to brief centrifugation, the samples were loaded onto Premium Coated Capillaries and their initial fluorescence measurements recorded. […] Initial fluorescence readings were used to derive binding affinities.

RAD51-ssDNA filaments = assay: EMSA, protection of RAD51-ssDNA filaments from BRC4-mediated disruption (random sequence ssDNA); assay type: biochemical; conditions: 100-nt random ssDNA; 10-fold excess of Ex27
Procedure: as §1

DMC1-ssDNA filaments [6] = assay: EMSA, protection of DMC1-ssDNA filaments from BRC4-mediated disruption; assay type: biochemical, human; conditions: TEA pH 7.5 + KCl; Ex14 10-fold stoichiometric excess (110 μM); 10-fold excess of BRC4
Procedure: Finally, we tested whether binding of BRCA2 Ex14 protects DMC1-ssDNA nucleoprotein filaments from BRC4-mediated disruption (Fig. 3c). […] Further, whilst the core PhePP interaction site is sufficient to stimulate DMC1-ssDNA nucleoprotein filament formation, surrounding amino-acids that are present within Ex14 (but not Ex14-Tr) are necessary to super-shift filaments and confer protection from BRC4-mediated disruption.
as §1

[7] = test system: RAD51-ssDNA (polydT) filaments; assay: EMSA, protection of RAD51-ssDNA (polydT) filaments from BRC4-mediated disruption; assay type: biochemical; conditions: 100-nt polydT; 10-fold excess of Ex27
Procedure: as §1

DMC1-ssDNA filaments [8] = assay: EMSA, stimulation of DMC1-ssDNA filament formation (TAE pH 7.5); assay type: biochemical, human
From the text: as §2, §1

[9] = molecular target: the molecule itself; assay: SEC-MALS; Superdex 200 Increase 10/300 GL, 20 mM Tris pH 8.0, 150 mM KCl, 2 mM DTT; the loop mutant also by SEC-SAXS
RAD51;BRCA2 Ex27 = RAD51;BRCA2 Ex27 (Homo sapiens?;Homo sapiens?, UniProt Q06609;P51587 1-339;3270-3315, |); assay: EMSA, BRC4 protection; 10-fold excess Ex27 + BRC4, complete protection; largely protected at 33 µM Ex27; DMC1: 25 mM TEA (triethanolamine) pH 7.5, 200 mM KCl, 1 mM ATP, 2 mM MgCl2, 0.1 mg/ml BSA, 2 mM DTT, or 50 mM TAE pH 7.5, 2 mM ATP, 2 mM MgCl2, 2 mM DTT; RAD51: 50 mM TEA, 2 mM ATP, 0.5 mM MgCl2, 2 mM DTT; all 4 C, agarose gel in 0.5x TAE; conditions: tags: ;; label: none (SYBR Gold post-stain); single strand
[10] = molecular target: the molecule itself; assay: crystal structure; DMC1 ΔN crystals soaked overnight with 3.5 mM BRCA2 Ex14-Tr peptide; anisotropic resolution limits 3.4-5.8 Å; peptide built with the guide of an AlphaFold2 model

BRCA2 Ex27 peptide (amino acids 3270-3315) (from UniProt P51587 3270-3315)
Kd [1]: > 96 µM

Ex14-AAA: Ex14 with alanine mutations F2406A, P2408A, P2409A (ATRNEKMRHLITTGRPTKVAVAAFKTKSHFHRVE; left off: His6, end not stated, cleaved | MBP, end not stated, cleaved)
super-shift of DMC1 V179E-ssDNA filaments [2]: The residual super-shift was the same | binding in pull-down (DMC1 ΔN [3]): not | super-shift of pre-formed DMC1-ssDNA filaments (DMC1-ssDNA filaments [4]): largely failed to stimulate or super-shift; also recorded: largely eliminated | interaction by MST (in words) (DMC1 ΔN [5]; pH 8.0): largely disrupted; also recorded: not detectable | protection of RAD51-ssDNA filaments from BRC4-mediated disruption (RAD51-ssDNA filaments): not | protection of DMC1-ssDNA filaments from BRC4-mediated disruption (DMC1-ssDNA filaments [6]): almost completely lost; also recorded: largely abrogated | protection of RAD51-ssDNA (polydT) filaments from BRC4-mediated disruption [7]: not | stimulation of DMC1-ssDNA nucleoprotein filament formation (DMC1-ssDNA filaments [8]; TAE pH 7.5, 100-nt random ssDNA, 4 °C, canonical ratio of three nucleotides to one protomer, equimolar for Ex14): largely failed to stimulate filament formation | stimulation of DMC1-ssDNA filament formation at high concentrations (DMC1-ssDNA filaments [8]; high peptide concentrations): partial stimulation; also recorded: some stimulation of filament formation

RPTKVFVPPFKTKS [Ex14-Tr]
Kd (DMC1 ΔN [5]; MST from initial fluorescence, 10 mM HEPES pH 8.0, 150 mM NaCl, 0.05 % Tween-20, ~22 °C, mean, n = 3 independent experiments): 35.7 µM

B1
Kd ([1]; both partners purified): 36 µM

B2
Kd ([1]; both partners purified): ~30 µM

B3
stoichiometry N [9]: 8

B4
binding result (RAD51;BRCA2 Ex27): binds

B5
stoichiometry N [10]: 8

B6
stoichiometry N [9]: 8
